In the Immune Epitope Database (IEDB):

Assays:
HLA-B*08:01 [1] = assay: IEDB peptide-MHC binding, purified MHC/competitive/fluorescence; ≥ and ≤ were set here for values at or beyond the usual limits of such assays
HLA-A*24:02 [2] = assay: as above
HLA-A*80:01 = assay: IEDB peptide-MHC binding, purified MHC/direct/fluorescence; filed as Kd, often an IC50 or EC50 that approximates it; ≥ and ≤ were set here for values at or beyond the usual limits of such assays
HLA-A*01:01 [3] = assay: IEDB peptide-MHC binding, purified MHC/competitive/fluorescence; filed as Kd, often an IC50 or EC50 that approximates it; ≥ and ≤ were set here for values at or beyond the usual limits of such assays; details: source organism: Human immunodeficiency virus type 1 BH10
HLA-A*29:02 [4] = assay: as above; details: source organism: Human immunodeficiency virus type 1 BH10
HLA-A*02:01 [5] = assay: IEDB peptide-MHC binding, purified MHC/competitive/fluorescence; ≥ and ≤ were set here for values at or beyond the usual limits of such assays; details: source organism: Zaire ebolavirus
HLA-B*15:01 [6] = assay: as above; details: source organism: Zaire ebolavirus
HLA-A*24:02 [7] = assay: IEDB peptide-MHC binding, purified MHC/competitive/fluorescence; filed as Kd, often an IC50 or EC50 that approximates it; ≥ and ≤ were set here for values at or beyond the usual limits of such assays
HLA-B*46:01 [8] = assay: IEDB peptide-MHC binding, purified MHC/direct/fluorescence; filed as Kd, often an IC50 or EC50 that approximates it; ≥ and ≤ were set here for values at or beyond the usual limits of such assays
HLA-B*40:01 = assay: as above
HLA-B*18:01 = assay: as above
HLA-B*08:03 = assay: as above
HLA-B*44:02 = assay: as above
HLA-B*58:01 = assay: as above
HLA-A*02:01 [9] = assay: as above
HLA-A*03:01 = assay: as above
HLA-B*27:05 = assay: as above
HLA-B*15:01 [10] = assay: as above
HLA-A*01:01 [11] = assay: as above
HLA-A*29:02 [12] = assay: as above; details: source organism: Influenza A virus (A/Hong Kong/507/97(H5N1))
HLA-A*11:01 = assay: as above
HLA-B*08:01 [13] = assay: IEDB peptide-MHC binding, purified MHC/competitive/fluorescence; filed as Kd, often an IC50 or EC50 that approximates it; ≥ and ≤ were set here for values at or beyond the usual limits of such assays; details: source organism: Influenza A virus (A/X-31(H3N2))
HLA-B*51:01 = assay: as above; details: source organism: Influenza A virus (A/X-31(H3N2))
HLA-A*02:11 = assay: IEDB peptide-MHC binding, purified MHC/direct/fluorescence; filed as Kd, often an IC50 or EC50 that approximates it; ≥ and ≤ were set here for values at or beyond the usual limits of such assays
HLA-A*02:12 = assay: as above
HLA-A*02:19 = assay: as above
HLA-C*05:01 = assay: as above; details: source organism: Brucella melitensis bv. 1 str. 16M
HLA-A*31:01 = assay: as above
HLA-A*02:03 = assay: as above
HLA-B*07:02 = assay: as above
HLA-A*02:06 = assay: as above
HLA-A*69:01 = assay: as above
HLA-A*02:16 = assay: as above; details: source organism: Brucella suis 1330
HLA-A*68:02 = assay: as above; details: source organism: Campylobacter jejuni RM1221
HLA-B*15:17 = assay: as above; details: source organism: Campylobacter jejuni RM1221
HLA-B*48:01 = assay: as above; details: source organism: Campylobacter jejuni RM1221
HLA-B*57:01 = assay: as above; details: source organism: Campylobacter jejuni RM1221
HLA-B*08:01 [14] = assay: as above; details: source organism: Vibrio vulnificus YJ016
HLA-A*24:02 [15] = assay: as above; details: source organism: Vibrio cholerae
HLA-A*26:01 = assay: as above; details: source organism: Vibrio vulnificus YJ016
HLA-B*46:01 [16] = assay: IEDB peptide-MHC binding, purified MHC/competitive/fluorescence; filed as Kd, often an IC50 or EC50 that approximates it; ≥ and ≤ were set here for values at or beyond the usual limits of such assays; details: source organism: Mopeia Lassa virus reassortant 29
HLA-B*35:01 = assay: as above; details: source organism: Mopeia Lassa virus reassortant 29
HLA-C*06:02 = assay: IEDB peptide-MHC binding, purified MHC/direct/fluorescence; filed as Kd, often an IC50 or EC50 that approximates it; ≥ and ≤ were set here for values at or beyond the usual limits of such assays; details: source organism: Listeria monocytogenes J0161
[17] = source organism: Vaccinia virus
[18] = source organism: Vaccinia virus Copenhagen
[19] = source organism: Zaire ebolavirus
[20] = source organism: Influenza A virus (A/Hong Kong/507/97(H5N1))
[21] = source organism: Brucella abortus
[22] = source organism: Brucella suis ATCC 23445
[23] = source organism: Brucella suis 1330
[24] = source organism: Campylobacter jejuni RM1221
[25] = source organism: Vibrio cholerae
[26] = source organism: Vibrio vulnificus YJ016
[27] = source organism: Mammarenavirus lassaense

## FKPPKFRAF
HLA-B*08:01 [1]; [17]
  IC50: ≥ 191 µM
HLA-A*24:02 [2]; [17]
  IC50: 52.6 µM

## FNCGGEFFY
HLA-A*80:01; source organism: Human immunodeficiency virus 1
  Kd: 52.6 nM
HLA-A*01:01 [3]
  Kd: 56.5 nM
HLA-A*29:02 [4]
  Kd: ≤ 0.1 nM

## GNIKHKERI
HLA-B*08:01 [1]; [18]
  IC50: ≥ 199 µM
HLA-A*24:02 [2]; [18]
  IC50: 47.7 µM

## HMMVIFRLM
HLA-B*08:01 [1]; [19]
  IC50: ≥ 3440 µM
HLA-A*24:02 [2]; [19]
  IC50: 0.83 µM
HLA-A*02:01 [5]
  IC50: 176 nM
HLA-B*15:01 [6]
  IC50: ≥ 168 µM

## IFIYSFFTW
HLA-A*24:02 [7]; source organism: Francisella tularensis subsp. holarctica FSC200
  Kd: 11.1 nM

## LAKSVFNSL
HLA-B*46:01 [8]; [20]
  Kd: ≥ 20 µM
HLA-B*40:01; [20]
  Kd: ≥ 20 µM
HLA-B*18:01; [20]
  Kd: ≥ 20 µM
HLA-B*08:03; source organism: Influenza A virus (A/Taiwan/2/2006(H1N1))
  Kd: 2130 nM
HLA-B*44:02; [20]
  Kd: ≥ 20 µM
HLA-B*58:01; [20]
  Kd: ≥ 20 µM
HLA-A*02:01 [9]; [20]
  Kd: ≥ 20000 nM
HLA-A*03:01; [20]
  Kd: ≥ 20000 nM
HLA-B*27:05; [20]
  Kd: ≥ 20 µM
HLA-B*15:01 [10]; [20]
  Kd: ≥ 20 µM
HLA-A*01:01 [11]; [20]
  Kd: ≥ 20000 nM
HLA-A*29:02 [12]
  Kd: ≥ 20 µM
HLA-A*11:01; [20]
  Kd: ≥ 20 µM
HLA-B*08:01 [13]
  Kd: 726 nM
HLA-B*51:01
  Kd: ≥ 20 µM

## LSDDSGLMV
HLA-B*46:01 [8]; [21]
  Kd: ≥ 20 µM
HLA-B*40:01; [21]
  Kd: ≥ 20 µM
HLA-A*02:11; [22]
  Kd: 71 nM
HLA-B*44:02; [21]
  Kd: ≥ 20 µM
HLA-A*02:12; [22]
  Kd: 1580 nM
HLA-A*02:19; [22]
  Kd: ≥ 20 µM
HLA-B*58:01; [21]
  Kd: ≥ 20 µM
HLA-A*02:01 [9]; [21]
  Kd: 1050 nM
HLA-C*05:01
  Kd: 7 nM
HLA-A*03:01; [21]
  Kd: ≥ 20000 nM
HLA-A*31:01; [21]
  Kd: ≥ 20000 nM
HLA-B*27:05; [21]
  Kd: ≥ 20 µM
HLA-A*02:03; [22]
  Kd: 420 nM
HLA-B*15:01 [10]; [21]
  Kd: ≥ 20 µM
HLA-A*01:01 [11]; [21]
  Kd: 21.7 nM
HLA-B*07:02; [21]
  Kd: ≥ 20 µM
HLA-A*11:01; [21]
  Kd: ≥ 20 µM
HLA-A*02:06; [22]
  Kd: 62 nM

## MRDGGSATV
HLA-A*69:01; [23]
  Kd: ≥ 20 µM
HLA-A*02:12; [23]
  Kd: ≥ 20000 nM
HLA-A*02:19; [23]
  Kd: ≥ 20 µM
HLA-A*02:01 [9]; source organism: Brucella suis
  Kd: ≥ 20000 nM
HLA-A*02:16
  Kd: ≥ 10 µM
HLA-A*02:06; [23]
  Kd: ≥ 10000 nM

## VQKVNPAPK
HLA-B*46:01 [8]; [24]
  Kd: ≥ 20 µM
HLA-A*68:02
  Kd: ≥ 20 µM
HLA-B*40:01; [24]
  Kd: ≥ 20 µM
HLA-B*15:17
  Kd: ≥ 20 µM
HLA-B*18:01; [24]
  Kd: ≥ 20 µM
HLA-B*08:03; source organism: Campylobacter jejuni subsp. jejuni 81116
  Kd: ≥ 20000 nM
HLA-B*58:01; [24]
  Kd: ≥ 20 µM
HLA-A*02:01 [9]; [24]
  Kd: ≥ 20000 nM
HLA-B*48:01
  Kd: ≥ 20 µM
HLA-A*03:01; [24]
  Kd: 476 nM
HLA-A*31:01; [24]
  Kd: 904 nM
HLA-B*57:01
  Kd: ≥ 20 µM
HLA-B*27:05; [24]
  Kd: ≥ 10 µM
HLA-B*15:01 [10]; [24]
  Kd: 1.12 µM
HLA-A*01:01 [11]; [24]
  Kd: ≥ 20000 nM
HLA-B*07:02; [24]
  Kd: ≥ 20 µM

## VVYKEAKIK
HLA-B*08:01 [14]
  Kd: ≥ 20 µM
HLA-B*46:01 [8]; [25]
  Kd: ≥ 20 µM
HLA-B*40:01; [25]
  Kd: ≥ 20 µM
HLA-A*69:01; [25]
  Kd: ≥ 20 µM
HLA-B*18:01; [25]
  Kd: ≥ 20 µM
HLA-A*02:11; [26]
  Kd: 868 nM
HLA-A*24:02 [15]
  Kd: ≥ 20 µM
HLA-B*44:02; [25]
  Kd: ≥ 20 µM
HLA-A*02:12; [26]
  Kd: 1990 nM
HLA-A*02:19; [26]
  Kd: ≥ 20 µM
HLA-B*58:01; [25]
  Kd: ≥ 20 µM
HLA-A*26:01
  Kd: ≥ 20 µM
HLA-A*02:01 [9]; [25]
  Kd: 978 nM
HLA-A*03:01; [25]
  Kd: 313 nM
HLA-B*27:05; [25]
  Kd: ≥ 20 µM
HLA-A*02:03; [26]
  Kd: 1120 nM
HLA-B*15:01 [10]; [25]
  Kd: ≥ 20 µM
HLA-A*01:01 [11]; [25]
  Kd: ≥ 20000 nM
HLA-B*07:02; [25]
  Kd: ≥ 20 µM
HLA-A*02:06; [26]
  Kd: 657 nM

## YQGKFYMPF
HLA-A*24:02 [7]; source organism: Yersinia pestis Nepal516
  Kd: 0.3 nM

## YSQESPQSY
HLA-A*80:01; [27]
  Kd: ≥ 20000 nM
HLA-A*01:01 [11]; [27]
  Kd: 1.1 nM
HLA-B*46:01 [16]
  Kd: 842 nM
HLA-B*35:01
  Kd: 44 nM

## YYVWMVQFF
HLA-C*06:02
  Kd: ≥ 20 µM
HLA-A*24:02 [7]; source organism: Listeria monocytogenes J0161
  Kd: 0.2 nM
